Measurements: patent US11325966

Experiments:
Experiment in all cases: cell-based or functional assay
[1] = biological target: HIV-1 envelope (Env) of pseudovirus 1054_07_TC4_1499 (HIV-1)
[2] = biological target: HIV-1 envelope (Env) of pseudovirus 1394C9G1 (Rev-) (HIV-1)
[3] = biological target: HIV-1 envelope (Env) of pseudovirus 211-9 (HIV-1)
[4] = biological target: HIV-1 envelope (Env) of pseudovirus 3016.v5.c45 (HIV-1)
[5] = biological target: HIV-1 envelope (Env) of pseudovirus BF1266.431a (HIV-1)
[6] = biological target: HIV-1 envelope (Env) of pseudovirus BG505/T332N (HIV-1)
[7] = biological target: HIV-1 envelope (Env) of pseudovirus BJOX010000.06.2 (HIV-1)
[8] = biological target: HIV-1 envelope (Env) of pseudovirus BJOX015000.11.5 (HIV-1)
[9] = biological target: HIV-1 envelope (Env) of pseudovirus CNE58 (HIV-1)
[10] = biological target: HIV-1 envelope (Env) of pseudovirus HIV-001428-2.42 (HIV-1)
[11] = biological target: HIV-1 envelope (Env) of pseudovirus P0402_c2_11 (HIV-1)
[12] = biological target: HIV-1 envelope (Env) of pseudovirus PVO.4 (HIV-1)
[13] = biological target: HIV-1 envelope (Env) of pseudovirus Q461.e2 (HIV-1)
[14] = biological target: HIV-1 envelope (Env) of pseudovirus QH0692.42 (HIV-1)
[15] = biological target: HIV-1 envelope (Env) of pseudovirus ZM135M.PL10a (HIV-1)
[16] = biological target: HIV-1 envelope (Env) of pseudovirus ZM214M.PL15 (HIV-1)
[17] = biological target: HIV-1 envelope (Env) of pseudovirus ZM53M.PB12 (HIV-1)
92BR020 (HIV-1) = biological target: 92BR020 (HIV-1)
92BR020 H33OA (HIV-1) = biological target: 92BR020 H33OA (HIV-1)
92BR020 I326A (HIV-1) = biological target: 92BR020 I326A (HIV-1)
92BR020 N136A (HIV-1) = biological target: 92BR020 N136A (HIV-1)
92BR020 N156A (HIV-1) = biological target: 92BR020 N156A (HIV-1)
[18] = biological target: 92BR020 N156A + N332A (HIV-1)
92BR020 N386A (HIV-1) = biological target: 92BR020 N386A (HIV-1)
92BR020 N392A (HIV-1) = biological target: 92BR020 N392A (HIV-1)
92BR020 Q328A (HIV-1) = biological target: 92BR020 Q328A (HIV-1)
92BR020 R327A (HIV-1) = biological target: 92BR020 R327A (HIV-1)
[19] = biological target: BG505 (T332N) N137A (HIV-1)
[20] = biological target: HIV-1 Env of pseudovirus 1394C9G1(Rev-) (HIV-1)
[21] = biological target: HIV-1 Env of pseudovirus 7030102001E5(Rev-) (HIV-1)
[22] = biological target: HIV-1 Env of pseudovirus ZM135M.PL10a (HIV-1)
[23] = biological target: HIV-1 Env of pseudovirus ZM247v1(Rev-) (HIV-1)
JR-CSF D325A (HIV-1) = JR-CSF D325A (HIV-1) (UniProt P20871)
JR-CSF H33OA (HIV-1) = JR-CSF H33OA (HIV-1) (UniProt P20871)
JR-CSF I326A (HIV-1) = JR-CSF I326A (HIV-1) (UniProt P20871)
JR-CSF N339A (HIV-1) = JR-CSF N339A (HIV-1) (UniProt P20871)
JR-CSF N386A (HIV-1) = JR-CSF N386A (HIV-1) (UniProt P20871)
JR-CSF N392A (HIV-1) = JR-CSF N392A (HIV-1) (UniProt P20871)
JR-CSF Q328A (HIV-1) = JR-CSF Q328A (HIV-1) (UniProt P20871)
[24] = biological target: BG505 (T332N) N339A (HIV-1)
[25] = biological target: HIV-1 Env of pseudovirus C3347.c11 (HIV-1)
JR-CSF (HIV-1) = JR-CSF (HIV-1) (UniProt P20871)
[26] = biological target: HIV-1 Env of pseudovirus ZM247v1 (Rev-) (HIV-1)
[27] = biological target: HIV-1 YU2 Env N280Y, on pseudovirus (HIV-1) (UniProt P35961)

## BG1 (antibody)
[1]
  IC50 in TZM-bl assay: > 30 µg/mL
  IC80 in TZM-bl assay: > 30 µg/mL
[2]
  IC50 in TZM-bl assay: 1.28 µg/mL
  IC80 in TZM-bl assay: 7.25 µg/mL
[3]
  IC50 in TZM-bl assay: 2.85 µg/mL
  IC80 in TZM-bl assay: 12.9 µg/mL
[4]
  IC50 in TZM-bl assay: > 30 µg/mL
  IC80 in TZM-bl assay: > 30 µg/mL
[5]
  IC50 in TZM-bl assay: > 30 µg/mL
  IC80 in TZM-bl assay: > 30 µg/mL
[6]
  IC50 in TZM-bl assay: 0.034 µg/mL
  IC80 in TZM-bl assay: 0.125 µg/mL
[7]
  IC50 in TZM-bl assay: > 30 µg/mL
  IC80 in TZM-bl assay: > 30 µg/mL
[8]
  IC50 in TZM-bl assay: > 30 µg/mL
  IC80 in TZM-bl assay: > 30 µg/mL
[9]
  IC50 in TZM-bl assay: > 30 µg/mL
  IC80 in TZM-bl assay: > 30 µg/mL
[10]
  IC50 in TZM-bl assay: 1.09 µg/mL
  IC80 in TZM-bl assay: 3.12 µg/mL
[11]
  IC50 in TZM-bl assay: > 30 µg/mL
  IC80 in TZM-bl assay: > 30 µg/mL
[12]
  IC50 in TZM-bl assay: > 30 µg/mL
  IC80 in TZM-bl assay: > 30 µg/mL
[13]
  IC50 in TZM-bl assay: > 30 µg/mL
  IC80 in TZM-bl assay: > 30 µg/mL
[14]
  IC50 in TZM-bl assay: > 30 µg/mL
  IC80 in TZM-bl assay: > 30 µg/mL
[15]
  IC50 in TZM-bl assay: > 30 µg/mL
  IC80 in TZM-bl assay: > 30 µg/mL
[16]
  IC50 in TZM-bl assay: > 30 µg/mL
  IC80 in TZM-bl assay: > 30 µg/mL
[17]
  IC50 in TZM-bl assay: > 30 µg/mL
  IC80 in TZM-bl assay: > 30 µg/mL

## PGT121 (antibody)
92BR020 (HIV-1)
  IC50 in TZM-bl assay: 0.004 µg/mL
92BR020 H33OA (HIV-1)
  IC50 in TZM-bl assay: 0.003 µg/mL
92BR020 I326A (HIV-1)
  IC50 in TZM-bl assay: 0.002 µg/mL
92BR020 N136A (HIV-1)
  IC50 in TZM-bl assay: 0.002 µg/mL
92BR020 N156A (HIV-1)
  IC50 in TZM-bl assay: 0.003 µg/mL
[18]
  IC50 in TZM-bl assay: > 1 µg/mL
92BR020 N386A (HIV-1)
  IC50 in TZM-bl assay: 0.006 µg/mL
92BR020 N392A (HIV-1)
  IC50 in TZM-bl assay: 0.007 µg/mL
92BR020 Q328A (HIV-1)
  IC50 in TZM-bl assay: 0.002 µg/mL
92BR020 R327A (HIV-1)
  IC50 in TZM-bl assay: 0.001 µg/mL
[19]
  IC50 in TZM-bl assay: 0.002 µg/mL
[20]
  IC50 in TZM-bl assay: 0.823 µg/mL
  IC80 in TZM-bl assay: 6.23 µg/mL
[21]
  IC80 in TZM-bl assay: 0.042 µg/mL
[22]
  IC50 in TZM-bl assay: 0.73 µg/mL
  IC80 in TZM-bl assay: 5.73 µg/mL
[23]
  IC50 in TZM-bl assay: 0.036 µg/mL
  IC80 in TZM-bl assay: 0.123 µg/mL
JR-CSF D325A (HIV-1)
  IC50 in TZM-bl assay: 0.079 µg/mL
JR-CSF H33OA (HIV-1)
  IC50 in TZM-bl assay: 0.017 µg/mL
JR-CSF I326A (HIV-1)
  IC50 in TZM-bl assay: 0.024 µg/mL
JR-CSF N339A (HIV-1)
  IC50 in TZM-bl assay: 0.007 µg/mL
JR-CSF N386A (HIV-1)
  IC50 in TZM-bl assay: 0.024 µg/mL
JR-CSF N392A (HIV-1)
  IC50 in TZM-bl assay: 0.017 µg/mL
JR-CSF Q328A (HIV-1)
  IC50 in TZM-bl assay: 0.057 µg/mL

## 354BG8 (antibody)
92BR020 (HIV-1)
  IC50 in TZM-bl assay: 0.015 µg/mL
92BR020 H33OA (HIV-1)
  IC50 in TZM-bl assay: 0.018 µg/mL
92BR020 I326A (HIV-1)
  IC50 in TZM-bl assay: 0.006 µg/mL
92BR020 N136A (HIV-1)
  IC50 in TZM-bl assay: 0.005 µg/mL
92BR020 N156A (HIV-1)
  IC50 in TZM-bl assay: 0.011 µg/mL
[18]
  IC50 in TZM-bl assay: > 50 µg/mL
92BR020 N386A (HIV-1)
  IC50 in TZM-bl assay: 0.012 µg/mL
92BR020 N392A (HIV-1)
  IC50 in TZM-bl assay: 0.023 µg/mL
92BR020 Q328A (HIV-1)
  IC50 in TZM-bl assay: 0.018 µg/mL
92BR020 R327A (HIV-1)
  IC50 in TZM-bl assay: 0.011 µg/mL
[19]
  IC50 in TZM-bl assay: 0.003 µg/mL
[24]
  IC50 in TZM-bl assay: 0.007 µg/mL
[20]
  IC50 in TZM-bl assay: 0.031 µg/mL
  IC80 in TZM-bl assay: 0.093 µg/mL
[21]
  IC50 in TZM-bl assay: 0.009 µg/mL
  IC80 in TZM-bl assay: 0.019 µg/mL
[25]
  IC50 in TZM-bl assay: > 10 µg/mL
  IC80 in TZM-bl assay: > 10 µg/mL
[23]
  IC50 in TZM-bl assay: 0.042 µg/mL
  IC80 in TZM-bl assay: 0.146 µg/mL
JR-CSF (HIV-1)
  IC50 in TZM-bl assay: 0.009 µg/mL
JR-CSF D325A (HIV-1)
  IC50 in TZM-bl assay: 0.005 µg/mL
JR-CSF H33OA (HIV-1)
  IC50 in TZM-bl assay: 0.05 µg/mL
JR-CSF I326A (HIV-1)
  IC50 in TZM-bl assay: 0.005 µg/mL
JR-CSF N339A (HIV-1)
  IC50 in TZM-bl assay: 0.01 µg/mL
JR-CSF N386A (HIV-1)
  IC50 in TZM-bl assay: 0.012 µg/mL
JR-CSF N392A (HIV-1)
  IC50 in TZM-bl assay: 0.014 µg/mL
JR-CSF Q328A (HIV-1)
  IC50 in TZM-bl assay: 0.023 µg/mL

## BG18 IgG (354BG18) (antibody)
[25]
  IC50 in TZM-bl assay: > 30 µg/mL
  IC80 in TZM-bl assay: > 30 µg/mL
[22]
  IC50 in TZM-bl assay: 0.029 µg/mL
  IC80 in TZM-bl assay: 0.161 µg/mL
[26]
  IC50 in TZM-bl assay: 1.45 µg/mL
  IC80 in TZM-bl assay: 8.72 µg/mL
[27]
  IC50 in TZM-bl assay: 0.005 µg/mL
  IC80 in TZM-bl assay: 0.016 µg/mL
